Measurements taken from the Immune Epitope Database (IEDB).

What was measured:
HLA-A*29:02 = assay: IEDB peptide-MHC binding, purified MHC/direct/fluorescence; filed as Kd, often an IC50 or EC50 that approximates it; ≥ and ≤ were set here for values at or beyond the usual limits of such assays; conditions: source organism: Zaire ebolavirus
HLA-A*24:03 = assay: as above; conditions: source organism: Zaire ebolavirus
HLA-A*02:12 = assay: as above; conditions: source organism: Zaire ebolavirus
HLA-A*02:19 = assay: as above; conditions: source organism: Zaire ebolavirus
HLA-A*03:01 [1] = assay: as above; conditions: source organism: Zaire ebolavirus
HLA-A*23:01 = assay: as above; conditions: source organism: Zaire ebolavirus
HLA-A*68:02 = assay: as above; conditions: source organism: Zaire ebolavirus
HLA-A*02:03 = assay: as above; conditions: source organism: Zaire ebolavirus
HLA-A*01:01 [2] = assay: as above; conditions: source organism: Zaire ebolavirus
HLA-A*02:11 = assay: as above; conditions: source organism: Zaire ebolavirus
HLA-A*02:16 = assay: as above; conditions: source organism: Zaire ebolavirus
HLA-A*11:01 [3] = assay: IEDB peptide-MHC binding, purified MHC/competitive/fluorescence; ≥ and ≤ were set here for values at or beyond the usual limits of such assays; conditions: source organism: Zaire ebolavirus
HLA-A*01:01 [4] = assay: as above; conditions: source organism: Zaire ebolavirus
HLA-A*02:01 [5] = assay: as above; conditions: source organism: Zaire ebolavirus
HLA-B*15:01 [6] = assay: as above; conditions: source organism: Zaire ebolavirus
HLA-B*18:01 = assay: IEDB peptide-MHC binding, purified MHC/competitive/fluorescence; filed as Kd, often an IC50 or EC50 that approximates it; ≥ and ≤ were set here for values at or beyond the usual limits of such assays
HLA-B*51:01 = assay: as above; conditions: source organism: Zaire ebolavirus
HLA-A*69:01 = assay: as above
HLA-B*39:01 = assay: as above
HLA-B*57:01 = assay: as above; conditions: source organism: Zaire ebolavirus
HLA-A*26:01 = assay: as above; conditions: source organism: Zaire ebolavirus
HLA-B*27:03 = assay: as above; conditions: source organism: Zaire ebolavirus
HLA-A*02:01 [7] = assay: as above
HLA-B*15:01 [8] = assay: as above
HLA-B*46:01 = assay: as above
HLA-B*15:17 = assay: as above; conditions: source organism: Human immunodeficiency virus 1
HLA-A*30:01 = assay: as above
HLA-A*11:01 [9] = assay: as above; conditions: source organism: Human immunodeficiency virus 1
HLA-A*01:01 [10] = assay: as above
HLA-B*08:02 = assay: as above
HLA-B*35:01 = assay: as above; conditions: source organism: Corynebacterium glutamicum R
HLA-B*07:02 = assay: as above; conditions: source organism: Corynebacterium glutamicum R
HLA-A*03:01 [11] = assay: as above; conditions: source organism: Corynebacterium glutamicum R
HLA-B*40:01 = assay: as above; conditions: source organism: Corynebacterium glutamicum R
HLA-B*58:01 [12] = assay: as above; conditions: source organism: Corynebacterium glutamicum R
HLA-A*31:01 = assay: as above; conditions: source organism: Corynebacterium glutamicum R
HLA-B*08:01 = assay: as above; conditions: source organism: Corynebacterium glutamicum R
HLA-B*27:05 = assay: as above; conditions: source organism: Corynebacterium glutamicum R
HLA-B*58:01 [13] = assay: IEDB peptide-MHC binding, purified MHC/direct/fluorescence; filed as Kd, often an IC50 or EC50 that approximates it; ≥ and ≤ were set here for values at or beyond the usual limits of such assays; conditions: source organism: Sudan ebolavirus - Maleo (1979)
HLA-B*15:02 = assay: IEDB peptide-MHC binding, purified MHC/competitive/fluorescence; filed as Kd, often an IC50 or EC50 that approximates it; ≥ and ≤ were set here for values at or beyond the usual limits of such assays
HLA-C*12:03 = assay: IEDB peptide-MHC binding, purified MHC/direct/fluorescence; filed as Kd, often an IC50 or EC50 that approximates it; ≥ and ≤ were set here for values at or beyond the usual limits of such assays; conditions: source organism: Bacillus anthracis str. A0488
HLA-C*15:02 = assay: as above; conditions: source organism: Bacillus anthracis str. A0488
HLA-C*14:02 = assay: as above; conditions: source organism: Bacillus anthracis str. A0488
[14] = source organism: Zaire ebolavirus
[15] = source organism: Human immunodeficiency virus 1
[16] = source organism: Corynebacterium glutamicum R

## ATEDPSSGY
HLA-A*29:02
  Kd: ≥ 20 µM
HLA-A*24:03
  Kd: ≥ 20 µM
HLA-A*02:12
  Kd: ≥ 20 µM
HLA-A*02:19
  Kd: ≥ 20 µM
HLA-A*03:01 [1]
  Kd: ≥ 20 µM
HLA-A*23:01
  Kd: ≥ 20 µM
HLA-A*68:02
  Kd: ≥ 20 µM
HLA-A*02:03
  Kd: ≥ 20 µM
HLA-A*01:01 [2]
  Kd: 0.438 µM
HLA-A*02:11
  Kd: ≥ 20 µM
HLA-A*02:16
  Kd: ≥ 20 µM
HLA-A*11:01 [3]
  IC50: 49.6 µM
HLA-A*01:01 [4]
  IC50: ≥ 154 µM
HLA-A*02:01 [5]
  IC50: ≥ 379 µM
HLA-B*15:01 [6]
  IC50: ≥ 97.2 µM
HLA-B*18:01; [14]
  Kd: ≥ 20 µM
HLA-B*51:01
  Kd: ≥ 20 µM
HLA-A*69:01; [14]
  Kd: ≥ 20 µM
HLA-B*39:01; [14]
  Kd: ≥ 20 µM
HLA-B*57:01
  Kd: ≥ 20 µM
HLA-A*26:01
  Kd: ≥ 20 µM
HLA-B*27:03
  Kd: ≥ 20 µM
HLA-A*02:01 [7]; [14]
  Kd: ≥ 20 µM
HLA-B*15:01 [8]; [14]
  Kd: ≥ 20 µM
HLA-B*46:01; [14]
  Kd: ≥ 20 µM

## GTEELKSLY
HLA-B*15:17
  Kd: 0.0595 µM
HLA-A*30:01; [15]
  Kd: ≥ 20 µM
HLA-B*39:01; [15]
  Kd: ≥ 20 µM
HLA-A*11:01 [9]
  Kd: ≥ 20 µM
HLA-A*01:01 [10]; [15]
  Kd: 0.0163 µM
HLA-B*08:02; [15]
  Kd: ≥ 20 µM

## RYDDGQSIY
HLA-B*18:01; [16]
  Kd: ≥ 20 µM
HLA-B*35:01
  Kd: ≥ 20 µM
HLA-A*30:01; [16]
  Kd: ≥ 20 µM
HLA-A*69:01; [16]
  Kd: ≥ 20 µM
HLA-B*07:02
  Kd: ≥ 20 µM
HLA-A*03:01 [11]
  Kd: ≥ 20 µM
HLA-B*40:01
  Kd: ≥ 20 µM
HLA-B*58:01 [12]
  Kd: ≥ 20 µM
HLA-A*01:01 [10]; [16]
  Kd: 19.7 µM
HLA-A*02:01 [7]; [16]
  Kd: ≥ 20 µM
HLA-B*08:02; [16]
  Kd: ≥ 20 µM
HLA-A*31:01
  Kd: ≥ 20 µM
HLA-B*15:01 [8]; [16]
  Kd: ≥ 20 µM
HLA-B*46:01; [16]
  Kd: ≥ 20 µM
HLA-B*08:01
  Kd: ≥ 20 µM
HLA-B*27:05
  Kd: ≥ 20 µM

## TGIVSSMHY
HLA-A*24:03
  Kd: ≥ 20 µM
HLA-A*02:12
  Kd: ≥ 20 µM
HLA-A*02:19
  Kd: ≥ 20 µM
HLA-A*03:01 [1]
  Kd: ≥ 20 µM
HLA-A*23:01
  Kd: ≥ 20 µM
HLA-A*68:02
  Kd: ≥ 20 µM
HLA-B*58:01 [13]
  Kd: ≥ 20 µM
HLA-A*02:03
  Kd: ≥ 20 µM
HLA-A*02:11
  Kd: ≥ 20 µM
HLA-B*18:01; [14]
  Kd: ≥ 20 µM
HLA-B*51:01
  Kd: ≥ 20 µM
HLA-A*69:01; [14]
  Kd: ≥ 20 µM
HLA-B*39:01; [14]
  Kd: ≥ 20 µM
HLA-B*57:01
  Kd: ≥ 20 µM
HLA-A*26:01
  Kd: ≥ 20 µM
HLA-B*27:03
  Kd: ≥ 20 µM
HLA-A*02:01 [7]; [14]
  Kd: ≥ 20 µM
HLA-B*46:01; [14]
  Kd: ≥ 20 µM

## YIRGVCSAF
HLA-B*15:02; source organism: Vibrio parahaemolyticus RIMD 2210633
  Kd: 0.0807 µM

## YLARYSGSM
HLA-C*12:03
  Kd: 0.3 µM
HLA-C*15:02
  Kd: ≥ 20 µM
HLA-C*14:02
  Kd: 0.03 µM
HLA-B*15:02; source organism: Bacillus anthracis str. A0488
  Kd: 0.0123 µM
